From patent US20210054047A1, “NOVEL ANTICANCER FUSION PROTEIN AND USE THEREOF” (KOREA INSTITUTE OF SCIENCE AND TECHNOLOGY, priority 2018, published 2021)

Columns and labels:
HepG2 cells = test: Cell viability, CCK-8 assay, HepG2; type: cell-based, human; details: TRAIL-sensitive HepG2 cells, 24 hours (FIG. 17)
Description: After culturing for 24 hours, cell viability was measured using a cell counting kit (CCK)-8 assay (Dojindo Molecular Technologies, Gaithersburg, Md.). The plate was then read with an absorbance microplate reader (Spectramax 340, Molecular Devices Corporation) at a wavelength of 450 nm and 50% effective by regression analysis using SigmaPlot software (Systat Software, Inc., San Jose, Calif.). The concentration value was calculated.

DR5 = molecular target: T1, DR5 (Homo sapiens, UniProt O14763); test: SPR binding to immobilized DR5-Fc; details: 25° C.
T1 construct: purchased R&D systems 631-T2-100
T1 sequence (O14763 with tags, fused parts or gaps limits assumed): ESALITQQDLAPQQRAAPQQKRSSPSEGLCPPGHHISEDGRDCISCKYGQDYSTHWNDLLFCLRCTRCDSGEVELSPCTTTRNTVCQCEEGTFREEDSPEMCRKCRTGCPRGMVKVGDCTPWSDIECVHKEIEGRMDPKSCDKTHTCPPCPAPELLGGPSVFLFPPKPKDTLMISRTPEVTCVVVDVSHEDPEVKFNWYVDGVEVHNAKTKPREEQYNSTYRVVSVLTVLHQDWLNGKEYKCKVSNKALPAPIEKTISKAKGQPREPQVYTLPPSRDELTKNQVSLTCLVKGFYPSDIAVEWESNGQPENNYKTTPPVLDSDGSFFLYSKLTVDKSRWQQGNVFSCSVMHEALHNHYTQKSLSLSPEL
Description: Binding experiments of TTPN and mTRAIL to TRAIL receptors DR4 and DR5 were analyzed at 25° C. using a surface plasmon resonance apparatus (SR7500 DC, Reichert Inc., NY, USA). DR4 and DR5-fc chimeric proteins (R&D systems 347-DR-100, 631-T2-100) were immobilized on the surface of the Planar Protein A sensor chip (Reichert, 13206069) and the receptors were coated at a level of 300 to 500 resonance units. SPR kinetic titrations were performed by adding 250 μl of TTPN and mTRAIL with different concentrations in the range of 1.56 to 400 nM and 0.1 to 25.6 μM, respectively, increasing by four times. Each analyte was run at 50 μL/min using running and sample buffer (0.5 M Tris-HCl (pH 7.4), 150 mM NaCl, 0.005% Tween 20), and binding of the ligand to the receptor was performed and monitored in real time. For titration sensorgrams, a simple 1:1 Langmuir interaction model (A+B↔AB) was applied using the data analysis program Scrubber 2.0 (BioLogic Software, Australia, and KaleidaGraph Software, Australia) and CLAMP software.
The affinity KD was determined from the formula of KD=kd/ka. Results are based on representative sensorgrams obtained from saturation binding reactions averaged over at least three independent runs of SPR measurements (FIG. 31).

HepG2 tumor = test: TUNEL analysis of HepG2 tumor tissue; type: in vivo, mouse; details: 15th day after first injection
From the text: In the evaluation of the anti-tumor effect of the present invention, BALB/c nude male mice (6-7 weeks old) were used as an animal model. Particularly, HT29 cells (5×10^6) and HepG2 cells (5×10^6) were subcutaneously inoculated into the left dorsal flank of BALB/c nude mice, respectively. After a volume of tumors reached ˜80-100 mm^3, mice were randomly divided into the 14 following five treatment groups (6 mice/group); DOX-TTPNs, DOX-FTNs, free DOX, empty TTPNs, and buffer. Mice were intravenously injected five times, once every 2 days, and volume of tumors was determined as 1/2(Length×Width^2). Apoptotic cell death in tumor tissues was analyzed using TUNEL staining (In situ Cell Death Detection kit; Roche), and cells were stained with DAPI (4′,6-diamidino-2-phenylindole), as previously described (Kih et al., Biomaterials 180: 67-77, 2018). Apoptotic cells were visualized under a Nikon Eclipse Ti microscope (Nikon) and quantified as the number of TUNEL-positive cells per total number of cells using ImageJ software. […]
In addition, to investigate whether tumor growth inhibition by TTPN is induced by apoptosis-inducing activity on tumor cells, tumor tissues from the treated mice were analyzed. On the 15th day after the first injection, mice were euthanized, and apoptosis of tumor tissues was analyzed using terminal deoxynucleotidyl transferase dUTP nick end labeling (TUNEL) staining.

[1] = over 1 month (Kih et al.); cited from earlier work
[2] = Dynamic light scattering (DLS) size; type: physicochemical
[3] = Transmission electron microscopy (TEM) size; type: physicochemical
Description: TEM analyses of TTPN and wtFTN were imaged by bio transmission electron microscopy (Hitachi). […] The hydrodynamic sizes of TTPN-DOX and TTPN were analyzed by dynamic light scattering (DLS) using a Zetasizer Nano ZS system (Malvern Instruments, Ltd., UK), as previously described (Zidi et al., Med. Oncol. 2010, 27(2): 185-198, 2010).

PARP = test: Western blot of HT29 lysates: PARP; type: cell-based, human; details: HT29, 24 hours
Description: After incubating HT29 cells with 50 nM DOX-TTPNs, DOX-FTNs, free DOX, or buffer for 24 hours, cells were lysed with radioimmunoprecipitation assay (RIPA) buffer (Cell Signaling Technology) and the concentration of proteins was measured using a DC protein assay kit (Bio-Rad). Equal amounts of proteins (30 μg) were resolved by SDS-PAGE and transferred to nitrocellulose membranes. After blocking with 5% skim milk in Tris-buffered saline containing 0.1% Tween-20 (TBST), membranes were incubated first with anti-Cl-PARP, anti-Cl-caspase-6, anti-cFLIP, anti-Bcl-xL, anti-XIAP, anti-Cl-caspase-3, or anti-GAPDH primary antibody (Cell Signaling Technology), and then with anti-mouse or anti-rabbit secondary antibodies (Sigma-Aldrich), as appropriate. Immunoreactive proteins were visualized using enhanced chemiluminescence (ECL) chemical reagents (Bio-Rad) and ChemiDoc (Bio-Rad), and were analyzed using ImageJ software.

HepG2 tumors = details: mouse, in vivo, iv
Description: The delivery efficiency of TTPN to the tumor microenvironment was investigated by performing an in vivo biodistribution study (n=4 mice/group) of Cy5.5-labeled TTPN using the eXplore Optix System (Advanced Research Technologies Inc., USA). […] Free-Cy5.5 was separated by ultrafiltration (Amicon Ultra 100 K, Millipore), and the fluorescence intensity of the Cy5.5-labeled protein was measured using a fluorescence microplate reader (Infinite M200 Pro, TECAN, Austria). […] The fluorescence intensity of all samples was adjusted to the same value based on the data obtained using a fluorescence microplate reader. To analyze the fluorescence intensity of tumors, the Analysis Workstation software (Advanced Research Technologies Inc.) was used to calculate total photons per […] per steradian (p/s/cm^2/sr) in the region of interest (ROI). At 24 hours post-injection, the mice were sacrificed, and tumors and major organs including liver, lung, spleen, kidney and heart were excised and analyzed in the same manner as described above.

Substance: TTPN: protein nanocage presenting TRAIL as natural-like homo-trimers; TRAIL 95-281 fused by linker peptide to human ferritin heavy chain
- apoptosis (HepG2 cells): concentration-dependent apoptosis
- ka (DR5): 6.62 (±4.19) · 10^4 M^−1 · S^−1
- kd (DR5): 1.49 (±1.13) · 10^−5 s^−1
- TUNEL-positive tumor cells (HepG2 tumor): 84.4%
- stability [1]: more than 90%
- average size (DLS) [2]: 25.85 nm
- average size (TEM) [3]: 24-28 nm
- increase in PARP relative to buffer-treated controls (defined as 1) (PARP): 457 fold
- fluorescence intensity of tumors (HepG2 tumors): higher than that of wtFTN and mTRAIL
